± gives the uncertainty stated by the source.
B1: F-BAR and double SH3 domains protein 1, residues 467 to 528; numbered along this chain, Q86WN1 (parent)
chain: RALPCPAHVVFRYQAGREDELTITEGEWLEVIEEGDADEWVKARNQHGEVGFVPERYLNFPD

Variants of: B1
Test: abundance fitness (aPCA) (normalised: wild type 0, dead -1); higher = more abundant; growth selection in yeast, the domain comes from the species named
Conditions: Homo sapiens

Row | Variant | abundance fitness
1 | V10H | -0.158 ± 0.23
2 | V10R | -0.098 ± 0.057
3 | V10Y | -0.118 ± 0.1
4 | V10I | -0.021 ± 0.064
5 | V31P | -0.969 ± 0.19
6 | V31N | -0.947 ± 0.23
7 | V31H | -0.709 ± 0.15
8 | V31K | -0.797 ± 0.14
9 | V31A | -0.465 ± 0.075
10 | G51H | -0.973 ± 0.38
11 | G51V | -0.857 ± 0.096
12 | G51D | -0.706 ± 0.19
13 | G51L | -0.273 ± 0.057
14 | G51M | -0.843 ± 0.12
15 | G48A | -0.39 ± 0.084
16 | G48K | -0.328 ± 0.11
17 | G48Q | -0.574 ± 0.19
18 | G26A | -0.501 ± 0.078
19 | G26H | -0.389 ± 0.16
20 | G26R | -0.558 ± 0.07
21 | E33G | 0.071 ± 0.078
22 | E33D | -0.156 ± 0.16
23 | E33V | -0.587 ± 0.086
24 | E33W | -0.629 ± 0.16

Row | Variant | abundance fitness
25 | A2D | 0.153 ± 0.095
26 | A2M | 0.104 ± 0.085
27 | A2C | 0.031 ± 0.061
28 | E39L | -0.146 ± 0.043
29 | E39A | -0.016 ± 0.052
30 | E39C | -0.103 ± 0.11
31 | E39G | 0.066 ± 0.064
32 | E39Q | -0.027 ± 0.078
33 | E39D | -0.228 ± 0.094
34 | E39I | -0.1 ± 0.096
35 | E39S | 0.028 ± 0.051
36 | E34V | -0.004 ± 0.062
37 | E34N | -0.016 ± 0.2
38 | E34G | -0.17 ± 0.064
39 | E34Q | -0.026 ± 0.062
40 | E34W | -0.074 ± 0.063
41 | E34P | -0.112 ± 0.072
42 | E34C | 0.008 ± 0.072
43 | I32P | -0.726 ± 0.11
44 | I32M | -0.162 ± 0.055
45 | I32E | -0.487 ± 0.078
46 | I32W | -0.276 ± 0.07
47 | I32Y | -0.063 ± 0.088
48 | I32F | 0.018 ± 0.063

Row | Variant | abundance fitness
49 | I32G | -0.674 ± 0.09
50 | H47A | 0.164 ± 0.06
51 | H47V | 0.004 ± 0.053
52 | H47Q | -0.026 ± 0.061
53 | H47K | 0.048 ± 0.07
54 | R44V | -0.165 ± 0.042
55 | R44T | -0.23 ± 0.081
56 | R44E | -0.268 ± 0.071
57 | V41P | -0.94 ± 0.2
58 | V41H | -0.929 ± 0.23
59 | V41F | -0.262 ± 0.085
60 | V41Y | -0.154 ± 0.11
61 | V41A | -0.495 ± 0.081
62 | V41M | -0.199 ± 0.069
63 | D38W | -0.154 ± 0.071
64 | D38K | -0.08 ± 0.091
65 | D38G | 0.023 ± 0.055
66 | D38E | 0.101 ± 0.065
67 | D38M | -0.17 ± 0.068
68 | D38A | 0.057 ± 0.045
69 | L58T | -0.602 ± 0.084
70 | L58S | -0.65 ± 0.059
71 | L58N | -1.02 ± 0.46
72 | L58C | -0.499 ± 0.078

Row | Variant | abundance fitness
73 | L58Q | -0.819 ± 0.14
74 | G35L | -0.318 ± 0.047
75 | G35K | -0.126 ± 0.07
76 | G35H | -0.409 ± 0.2
77 | G35C | -0.179 ± 0.15
78 | G35A | -0.045 ± 0.052
79 | G35Q | -0.379 ± 0.095
80 | A43P | -0.865 ± 0.12
81 | A43D | -0.793 ± 0.22
82 | A43L | -0.853 ± 0.095
83 | A43V | -0.056 ± 0.058
84 | A43G | -0.299 ± 0.078
85 | A43H | -0.629 ± 0.26
86 | A43Q | -0.839 ± 0.16
87 | K42V | -0.105 ± 0.05
88 | K42S | -0.325 ± 0.058
89 | K42E | -0.496 ± 0.14
90 | K42P | -0.974 ± 0.15
91 | V50A | -0.211 ± 0.065
92 | V50K | -0.187 ± 0.075
93 | V50Q | -0.093 ± 0.061
94 | V50E | 0.016 ± 0.066
95 | L29M | -0.508 ± 0.13
96 | L29F | -1.03 ± 0.33

Row | Variant | abundance fitness
97 | L29W | -1.01 ± 0.21
98 | L29A | -0.7 ± 0.12
99 | L29G | -0.975 ± 0.18
100 | L29K | -1.06 ± 0.26
101 | R56C | -0.012 ± 0.12
102 | R56V | -0.096 ± 0.057
103 | R56M | -0.126 ± 0.055
104 | R56E | 0.053 ± 0.081
105 | R56Q | 0.012 ± 0.053
106 | R56W | -0.263 ± 0.12
107 | A15H | -0.891 ± 0.33
108 | A15K | -0.125 ± 0.092
109 | A15Y | -0.875 ± 0.25
110 | A15L | -0.718 ± 0.085
111 | D19H | -0.013 ± 0.11
112 | D19F | -0.006 ± 0.058
113 | D19G | 0.159 ± 0.067
114 | D19V | 0.103 ± 0.056
115 | D19R | -0.048 ± 0.039
116 | E30G | -0.801 ± 0.09
117 | E30C | -0.307 ± 0.15
118 | E30P | -0.753 ± 0.12
119 | E30T | -0.055 ± 0.065
120 | E30Q | -0.02 ± 0.066

Row | Variant | abundance fitness
121 | Y13D | -0.648 ± 0.12
122 | Y13V | -0.785 ± 0.097
123 | Y13N | -0.38 ± 0.089
124 | Y13F | -0.06 ± 0.066
125 | Y13G | -0.463 ± 0.083
126 | Y13A | -0.504 ± 0.079
127 | Y57K | -0.231 ± 0.081
128 | Y57A | 0.102 ± 0.048
129 | Y57D | -0.161 ± 0.092
130 | Y57T | 0.07 ± 0.052
131 | Y57N | 0.109 ± 0.083
132 | V9D | -0.764 ± 0.27
133 | V9W | -0.902 ± 0.13
134 | V9P | -0.781 ± 0.18
135 | V9I | -0.795 ± 0.14
136 | V9M | -1.01 ± 0.2
137 | V9T | -0.531 ± 0.1
138 | F11D | 0.143 ± 0.092
139 | F11A | 0.11 ± 0.048
140 | F11K | 0.017 ± 0.065
141 | F11I | 0.12 ± 0.074
142 | F11G | 0.095 ± 0.041
143 | F11N | 0.039 ± 0.083
144 | F11T | 0.069 ± 0.056

Row | Variant | abundance fitness
145 | R12H | -0.188 ± 0.12
146 | R12D | -0.024 ± 0.097
147 | R12F | -0.01 ± 0.07
148 | R12E | 0.17 ± 0.12
149 | R12A | 0.056 ± 0.055
150 | R12W | -0.455 ± 0.096
151 | R12V | -0.367 ± 0.061
152 | R12C | -0.056 ± 0.077
153 | P6W | -0.29 ± 0.062
154 | P6H | -0.038 ± 0.14
155 | P6M | -0.357 ± 0.12
156 | P6Q | -0.222 ± 0.072
157 | P6G | -0.209 ± 0.052
158 | P54H | -0.017 ± 0.077
159 | P54R | 0.012 ± 0.042
160 | P54Y | -0.14 ± 0.087
161 | P54S | -0.126 ± 0.059
162 | P54L | -0.016 ± 0.04
163 | P54G | -0.299 ± 0.059
164 | P54M | -0.009 ± 0.053
165 | E18C | -0.076 ± 0.086
166 | E18R | -0.134 ± 0.039
167 | E18N | -0.086 ± 0.091

— the Human Domainome abundance scans (Beltran et al. 2025)
